These results are taken from paper PMC7642319, “Behavior control of membrane-less protein liquid condensates with metal ion-induced phase separation” (Nature Communications, 2020).

The target in this test is T1, second SH3 domain from Nck.
T1 construct: second SH3 domain of Nck; The methods say that 6His-tagged proteins were purified on Ni-IDA and that the tag could be removed with TEV protease; also called free SH3; SH3 domain proteins; source: E. coli BL21 (DE3), pET-21a, purified (Ni-IDA)
In words: ITC; SH3 domain in the cell, chemically synthesized peptide as titrant in the syringe; PBS pH 7.4, 25 °C; one-site binding model. The note with it: both partners purified. For orientation: Isothermal titration calorimetry measures the heat released or taken up as one component is titrated into another.
Turning to MKKTPPPVPPRTTSK [PRM(H) peptide, wild type], the Kd was 12.8 µM.
The result for MKKKKTAPTPPKRS [proline-rich motif (PRM) peptide, wild type] reads 379 µM; that for ELELTAPTPPKRS [ELEL mutant PRM peptide (four Lys residues mutated to acidic ELEL)], 121 µM.
In turn, MKKTPPAVAPRTTSK [P7A P9A double mutant PRM(H) peptide] showed an equilibrium dissociation constant (Kd) of 131 µM.
As for MKKTPPAVPPRTTSK [P7A mutant PRM(H) peptide], the figure is 19.4 µM.
Take MEETPPPVPPRTTSK [EE mutant PRM(H) peptide (two Lys residues mutated to acidic EE)]: the dissociation constant (Kd) is 3.32 µM.
As for MKKTPPPVAPRTTSK [P9A mutant PRM(H) peptide], the figure is 102 µM.

One may read the Kd as the free concentration of one partner at which half of the binding sites on the other are occupied at equilibrium, for simple one-to-one binding. A higher Kd goes with a looser complex.
